Tests used:
[1] = test system: mouse model of CKD; conditions: administration of sKL; cited from earlier work
[2] = target: T1, FGF23/FGFR4 binding (Homo sapiens, UniProt P22455+Q9GZV9, R179Q); assay: Surface plasmon resonance, FGF23 binding to surface FGFR4 with heparin or sKL in solution
T1 construct: Fc-FGFR4 protein (human ectodomain) was immobilized; purchased R&D Systems human FGF23 2604FG025/CF; human FGFR4 685FR050
T1 sequence (Q9GZV9 25-251 R179Q): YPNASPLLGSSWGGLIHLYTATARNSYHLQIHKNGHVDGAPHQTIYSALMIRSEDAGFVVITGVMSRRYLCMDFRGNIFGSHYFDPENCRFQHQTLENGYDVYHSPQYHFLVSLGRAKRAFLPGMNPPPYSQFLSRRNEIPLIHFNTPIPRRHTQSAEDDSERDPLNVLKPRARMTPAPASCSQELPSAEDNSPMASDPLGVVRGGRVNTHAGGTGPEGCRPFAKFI
T1 sequence (P22455 22-369 limits assumed): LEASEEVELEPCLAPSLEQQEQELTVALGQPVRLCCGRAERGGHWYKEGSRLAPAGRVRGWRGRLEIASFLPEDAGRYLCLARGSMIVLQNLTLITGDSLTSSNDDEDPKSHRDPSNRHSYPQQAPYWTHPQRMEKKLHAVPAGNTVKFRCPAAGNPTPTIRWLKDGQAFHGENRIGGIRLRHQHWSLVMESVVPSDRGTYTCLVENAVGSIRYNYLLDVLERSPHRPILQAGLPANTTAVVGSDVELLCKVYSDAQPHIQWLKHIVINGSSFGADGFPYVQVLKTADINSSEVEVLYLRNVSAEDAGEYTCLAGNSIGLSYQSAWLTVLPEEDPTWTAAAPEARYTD
Description: For the direct quantitative analysis of label-free molecular interactions in real time, surface plasmon resonance studies were conducted using BIAcore T200 and T200 evaluation software (28975001, Cytiva). Sensor SA (BR100398) and CMS chips (BR100399) were from Cytiva. For the preparation of heparin chips, heparin (2 mg) and amine-PEG3-Biotin (2 mg, 21347, Pierce) were dissolved in 200 μl of H2O and 10 mg of NaCNBH3 was added. The reaction mixture was heated at 70° C. for 24 hours; an additional 10 mg of NaCNBH3 was added; and the reaction was heated at 70° C. for another 24 hours. After cooling to room temperature, the mixture was desalted with the spin column (3000 MWCO). Biotinylated heparin was collected, freeze dried, and used for chip preparation. Biotinylated heparin was immobilized to streptavidin chips according to the manufacturer's protocol. In brief, 20 μl of biotinylated heparin solution (0.1 mg/ml) in HBS-P running buffer (0.01 M N-2-hydroxyethylpiperazine-N′-2-ethanesulfonic acid, 0.15 M NaCl, 0.005% surfactant P20 [pH7.4]; BR100368, Cytiva) was injected over flow cell 2 of the streptavidin chip at a flow rate of 10 μl/min. The successful immobilization of heparin was confirmed by the observation of an approximately 200-resonance unit increase in the sensor chip. […] The response was monitored as a function of time (sensorgram) at 25° C.

B1: sKL: recombinant soluble α-klotho ectodomain, mouse aa 35-982 and human aa 34-981, FLAG- or Strep/His-tagged, purified from HEK293 cells (protein)
chain: EPGDGAQTWARFSRPPAPEAAGLFQGTFPDGFLWAVGSAAYQTEGGWQQHGKGASIWDTFTHHPLAPPGDSRNASLPLGAPSPLQPATGDVASDSYNNVFRDTEALRELGVTHYRFSISWARVLPNGSAGVPNREGLRYYRRLLERLRELGVQPVVTLYHWDLPQRLQDAYGGWANRALADHFRDYAELCFRHFGGQVKYWITIDNPYVVAWHGYATGRLAPGIRGSPRLGYLVAHNLLLAHAKVWHLYNTSFRPTQGGQVSIALSSHWINPRRMTDHSIKECQKSLDFVLGWFAKPVFIDGDYPESMKNNLSSILPDFTESEKKFIKGTADFFALCFGPTLSFQLLDPHMKFRQLESPNLRQLLSWIDLEFNHPQIFIVENGWFVSGTTKRDDAKYMYYLKKFIMETLKAIKLDGVDVIGYTAWSLMDGFEWHRGYSIRRGLFYVDFLSQDKMLLPKSSALFYQKLIEKNGFPPLPENQPLEGTFPCDFAWGVVDNYIQVDTTLSQFTDLNVYLWDVHHSKRLIKVDGVVTKKRKSYCVDFAAIQPQIALLQEMHVTHFRFSLDWALILPLGNQSQVNHTILQYYRCMASELVRVNITPVVALWQPMAPNQGLPRLLARQGAWENPYTALAFAEYARLCFQELGHHVKLWITMNEPYTRNMTYSAGHNLLKAHALAWHVYNEKFRHAQNGKISIALQADWIEPACPFSQKDKEVAERVLEFDIGWLAEPIFGSGDYPWVMRDWLNQRNNFLLPYFTEDEKKLIQGTFDFLALSHYTTILVDSEKEDPIKYNDYLEVQEMTDITWLNSPSQVAVVPWGLRKVLNWLKFKYGDLPMYIISNGIDDGLHAEDDQLRVYYMQNYINEALKAHILDGINLCGYFAYSFNDRTAPRFGLYRYAADQFEPKASMKHYRKIIDSNGFPGPETLERFCPEEFTVCTECSFFHTRKS
modifications: left off: small tags and cut ends
notes: recombinant soluble α-klotho ectodomain, mouse aa 35-982 and human aa 34-981, FLAG- or Strep/His-tagged, purified from HEK293 cells
development of ventricular arrhythmias [1]: protects | sKL's effect on increasing FGFR4 affinity for FGF23 relative to heparin [2]: 4- to 5 fold | increase in FGF23/FGFR4 binding affinity ([2]; heparin or sKL in solution): approximately 13 fold

— US20240384250A1, “FIBROBLAST GROWTH FACTOR 23 MODULATING COMPOUNDS” (THE UAB RESEARCH FOUNDATION, priority 2021, published 2024)
